T1: FcγRIIa R (human, UniProt P12318 34-217)
T1 construct: extracellular domain; also called FcgRIIa R type; 2aR
T1 sequence (looked up): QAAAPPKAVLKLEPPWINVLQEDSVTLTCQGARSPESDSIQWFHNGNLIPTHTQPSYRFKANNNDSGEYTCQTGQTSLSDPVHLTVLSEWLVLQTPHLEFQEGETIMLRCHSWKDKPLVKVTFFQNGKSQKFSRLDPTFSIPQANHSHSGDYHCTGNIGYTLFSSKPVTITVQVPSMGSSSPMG

T2: FcγRIIb (human, UniProt P31994 43-217)
T2 construct: extracellular domain; also called FcgRIIb; 2b
T2 sequence (looked up): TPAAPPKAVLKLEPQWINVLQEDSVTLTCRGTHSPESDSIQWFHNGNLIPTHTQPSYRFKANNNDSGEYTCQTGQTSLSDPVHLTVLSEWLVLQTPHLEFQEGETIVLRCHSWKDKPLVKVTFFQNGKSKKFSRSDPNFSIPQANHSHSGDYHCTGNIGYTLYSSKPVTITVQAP

B1: GpH7-A5/GpH7-B3 variant L328_11K/GpL16-k0 (antibody, human IgG1, kappa)
heavy 1: not shown
heavy 2: not shown
light: DIVMTQSPLSLPVTPGEPASISCQASESLVHSNRNTYLHWYLQKPGQSPQLLIYKVSNRFSGVPDRFSGSGSGTDFTLKISRVEAEDVGVYYCSQNTHVPPTFGQGTKVEIERTVAAPSVFIFPPSDEQLKSGTASVVCLLNNFYPREAKVQWKVDNALQSGNSQESVTEQDSKDSTYSLSSTLTLSKADYEKHKVYACEVTHQGLSSPVTKSFNRGEC
notes: He Ab; mutation in the GpH7-B3 chain only; also called He Ab
B2: GpH7-A5/GpH7-B3 variant L328_12R/GpL16-k0 (antibody, human IgG1, kappa)
heavy 1: not shown
heavy 2: not shown
light: B1 light
notes: as for B1
B3: GpH7-A5/GpH7-B3 variant E269_01G/GpL16-k0 (antibody, human IgG1, kappa)
heavy 1: not shown
heavy 2: not shown
light: B1 light
notes: heterodimerized anti-glypican-3 IgG1; alteration in one H chain only; also called He Ab
B4: GpH7-A5/GpH7-B3 variant E269_03V/GpL16-k0 (antibody, human IgG1, kappa)
heavy 1: not shown
heavy 2: not shown
light: B1 light
notes: as for B3
B5: GpH7-A5/GpH7-B3 variant D265_12R/GpL16-k0 (antibody, human IgG1, kappa)
heavy 1: not shown
heavy 2: not shown
light: B1 light
notes: as for B3
B6: GpH7-A5/GpH7-B3 variant D265_11K/GpL16-k0 (antibody, human IgG1, kappa)
heavy 1: not shown
heavy 2: not shown
light: B1 light
notes: as for B3
B7: GpH7-A5/GpH7-B3 variant E269_12R/GpL16-k0 (antibody, human IgG1, kappa)
heavy 1: not shown
heavy 2: not shown
light: B1 light
notes: as for B3
B8: GpH7-A5/GpH7-B3 variant D265_19Q/GpL16-k0 (antibody, human IgG1, kappa)
heavy 1: not shown
heavy 2: not shown
light: B1 light
notes: as for B3
B9: GpH7-A5/GpH7-B3 variant E269_04F/GpL16-k0 (antibody, human IgG1, kappa)
heavy 1: not shown
heavy 2: not shown
light: B1 light
notes: as for B3
B10: GpH7-A5/GpH7-B3 variant E269_08L/GpL16-k0 (antibody, human IgG1, kappa)
heavy 1: not shown
heavy 2: not shown
light: B1 light
notes: as for B3
B11: GpH7-A5/GpH7-B3 variant E269_02A/GpL16-k0 (antibody, human IgG1, kappa)
heavy 1: not shown
heavy 2: not shown
light: B1 light
notes: as for B3
B12: GpH7-A5/GpH7-B3 variant D265_10E/GpL16-k0 (antibody, human IgG1, kappa)
heavy 1: not shown
heavy 2: not shown
light: B1 light
notes: as for B3
B13: GpH7-A5/GpH7-B3 variant E269_06M/GpL16-k0 (antibody, human IgG1, kappa)
heavy 1: not shown
heavy 2: not shown
light: B1 light
notes: as for B3
B14: GpH7-A5/GpH7-B3 variant E269_14T/GpL16-k0 (antibody, human IgG1, kappa)
heavy 1: not shown
heavy 2: not shown
light: B1 light
notes: as for B3
B15: GpH7-A5/GpH7-B3 variant D265_16H/GpL16-k0 (antibody, human IgG1, kappa)
heavy 1: not shown
heavy 2: not shown
light: B1 light
notes: as for B3
B16: GpH7-A5/GpH7-B3 variant D265_14T/GpL16-k0 (antibody, human IgG1, kappa)
heavy 1: not shown
heavy 2: not shown
light: B1 light
notes: as for B3
B17: GpH7-A5/GpH7-B3 variant D265_18N/GpL16-k0 (antibody, human IgG1, kappa)
heavy 1: not shown
heavy 2: not shown
light: B1 light
notes: as for B3
B18: GpH7-A5/GpH7-B3 variant E269_07I/GpL16-k0 (antibody, human IgG1, kappa)
heavy 1: not shown
heavy 2: not shown
light: B1 light
notes: as for B3
B19: GpH7-A5/GpH7-B3 variant E269_11K/GpL16-k0 (antibody, human IgG1, kappa)
heavy 1: not shown
heavy 2: not shown
light: B1 light
notes: as for B3
B20: GpH7-A5/GpH7-B3 variant E269_13S/GpL16-k0 (antibody, human IgG1, kappa)
heavy 1: not shown
heavy 2: not shown
light: B1 light
notes: as for B3

molecular target: T3, FcγRIa (human, UniProt P12314 16-292); assay: ratio of He/Con_1a to He/Con_2b (FcγRIa over FcγRIIb), SPR
T3 construct: extracellular domain; also called FcgRI; CD64
Experimental: (§1) The heterodimerized antibodies He Abs in which one of the H chains was introduced with an alteration were assayed for their binding activities to each activating FcγR and inhibitory FcγR according to the method described in Example 4. […] The activating FcγRs in FIGS. 26, 27, 28, and 29 are FcγRIa, FcγRIIa (R), FcγRIIa (H), and FcγRIIIa, respectively.
(§2) Analysis of interaction between objective antibody and the FcγR was carried out using Biacore T100 (GE Healthcare). HBS-EP+ (GE Healthcare) was used as the running buffer, and the measurement temperature was set to 25° C. Chips produced by immobilizing the antigen peptide by the amine coupling method to a Series S Sencor Chip CM5 (GE Healthcare), or alternatively, chips produced by allowing preliminarily biotinylated antigen peptides to interact with and immobilize onto a Series S Sensor Chip SA (certified) (GE Healthcare) were used. Antibodies of interest were captured onto an antigen peptide-immobilized chip, and allowed to interact to each FcγR diluted with running buffer. To regenerate and repeatedly use the chip, the antibodies captured on the chip were washed off by reacting 10 mM glycine-HCl, pH 1.5.

T3 sequence (P12314 16-292): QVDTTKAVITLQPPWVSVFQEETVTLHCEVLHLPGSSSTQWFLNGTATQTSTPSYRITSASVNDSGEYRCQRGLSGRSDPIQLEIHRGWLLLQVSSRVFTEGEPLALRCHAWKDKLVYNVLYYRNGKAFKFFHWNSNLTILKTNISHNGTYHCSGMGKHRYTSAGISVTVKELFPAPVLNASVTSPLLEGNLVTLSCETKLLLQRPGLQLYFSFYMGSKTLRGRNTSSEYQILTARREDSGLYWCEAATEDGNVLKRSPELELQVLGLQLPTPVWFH

Row | He_1a/2b (Ia/IIb) | Binder
1 | 10.5 | B1
2 | 8.51 | B2

molecular target: T1, FcγRIIa R; assay: SPR (Biacore); He/Con_2aR divided by He/Con_2b (FcγRIIa R over FcγRIIb)

Row | He_2aR/2b (IIaR/IIb) | Binder
3 | 1.27 ratio | B3
4 | 1.3 ratio | B4
5 | 2.15 ratio | B5
6 | 2.26 ratio | B6
7 | 1.39 ratio | B7
8 | 1.64 ratio | B8
9 | 1.29 ratio | B9
10 | 1.33 ratio | B10
11 | 1.31 ratio | B11
12 | 1.52 ratio | B12
13 | 1.32 ratio | B13
14 | 1.3 ratio | B14
15 | 1.51 ratio | B15
16 | 1.61 ratio | B16
17 | 2.02 ratio | B17
18 | 1.34 ratio | B18
19 | 2.14 ratio | B19
20 | 1.28 ratio | B20

molecular target: T3, FcγRIa; assay: SPR (Biacore), captured antibody, soluble FcγR; relative to GpH7-A5/GpH7-B3/GpL16-k0 = 100
Experimental: as §1, §2

Row | He/Con_1a | Binder
21 | 79.2 % of control | B1
22 | 78.6 % of control | B2

molecular target: T1, FcγRIIa R; assay: SPR (Biacore), captured antibody, FcγR as analyte; relative binding, control GpH7-A5/GpH7-B3/GpL16-k0 = 100
Experimental: as §1, §2

Row | He/Con_2aR | Binder
23 | 65.3 control = 100 | B3
24 | 58.8 control = 100 | B4
25 | 32.2 control = 100 | B5
26 | 33.7 control = 100 | B6
27 | 35 control = 100 | B7
28 | 54.8 control = 100 | B8
29 | 58.2 control = 100 | B9
30 | 57.2 control = 100 | B10
31 | 65.3 control = 100 | B11
32 | 58.2 control = 100 | B12
33 | 61.7 control = 100 | B13
34 | 66 control = 100 | B14
35 | 58 control = 100 | B15
36 | 25.8 control = 100 | B16
37 | 12.4 control = 100 | B17
38 | 58.8 control = 100 | B18
39 | 38.1 control = 100 | B19
40 | 61.2 control = 100 | B20

molecular target: T2, FcγRIIb; assay: as above
Experimental: as §1, §2

Row | He/Con_2b | Binder
41 | 51.5 control = 100 | B3
42 | 45.1 control = 100 | B4
43 | 15 control = 100 | B5
44 | 14.9 control = 100 | B6
45 | 25.2 control = 100 | B7
46 | 33.4 control = 100 | B8
47 | 45 control = 100 | B9
48 | 42.9 control = 100 | B10
49 | 49.9 control = 100 | B11
50 | 38.2 control = 100 | B12
51 | 46.7 control = 100 | B13
52 | 50.6 control = 100 | B14
53 | 38.3 control = 100 | B15
54 | 16 control = 100 | B16
55 | 6.1 control = 100 | B17
56 | 43.9 control = 100 | B18
57 | 17.8 control = 100 | B19
58 | 47.8 control = 100 | B20
